Data reported in article PMC10266979.

Assays:
[1] = target: Recombinant neuraminidase (N2) from H3N2 A/Tanzania/205/2010 with S245N and S247T mutations (influenza A virus H3N2 A/Tanzania/205/2010); assay: cryo-EM structure
[2] = target: Recombinant neuraminidase (N2) from H3N2 A/Tanzania/205/2010 (influenza A virus H3N2 A/Tanzania/205/2010); assay: cryo-EM structure

Substance: Recombinant neuraminidase (N2) from H3N2 A/Tanzania/205/2010 with S245N and S247T mutations (enzyme)
- stoichiometry N [1]: 4

Substance: Recombinant neuraminidase (N2) from H3N2 A/Tanzania/205/2010 (enzyme)
- stoichiometry N [2]: 4
